Laboratory results as given in US12673985B2, “Method for the treatment or prophylaxis of cancer by targeting the extracellular portion of keratin 14 (KRT14) residing on cancer cells” (Hudson Institute of Medical Research, priority 2019, dated 2026).
Entries after “also recorded” stand apart in the source; their conditions may differ.

Columns and labels:
[1] = system: 9,184 individual recombinant human proteins; test: ProtoArray Human Protein Microarrays v5.0 cross-reactivity profiling; type: binding; conditions: mAb diluted 1:500
Protocol: Proteomic profiling of mAb AN-17 antibody reactivity was performed using Invitrogen™ ProtoArray™ Human Protein Microarrays v5.0 (ThermoFisher Scientific, Waltham MA), comprising 9,184 individual recombinant human proteins spotted in duplicate. All procedures were carried out as previously described (PMID: 29141850; Wilson et al. Cancer Epidemiol Biomarkers Prev. 2018; 27(2):183-192). Arrays were probed using mAb AN-17 diluted 1:500 in wash buffer. Fluorescent detection antibody against IgG heavy and light chains was from Abcam (#ab150119 Goat Anti-Mouse IgG H&L Alexa Fluor® 647, preadsorbed) diluted to […] in wash buffer prior to use. A single array incubated with detection antibody alone was used as a control for non-specific antibody binding.
Array imaging was performed using a Fuji FLA5100 multi wavelength scanner as described (PMID: 29141850; Wilson et al. Cancer Epidemiol Biomarkers Prev. 2018; 27(2):183-192), using a 635 nm excitation laser and dual band pass Cy3/Cy5 filter. Images were acquired at […], with PMT set at 1000V. Array alignment, feature extraction and data normalization were performed as previously described (PMID: 29141850; Wilson et al. Cancer Epidemiol Biomarkers Prev. 2018; 27(2):183-192). Array co-ordinates were obtained from the manufacturer-provided downloadable .GAL files (ThermoFisher Scientific).

[2] = Assessment of mAb AN-17 toxicity, single intraperitoneal dose; type: in vivo, mice
Protocol: Doses of 0.5, 1.0. 2.5, 5.0 and 10 mg/kg were assessed. After 7 days mice were culled, and examined post mortem for any evidence of toxicity (macroscopic tissue appearance, presence of inflammation, or any obvious lesions).

[3] = system: SJ-GBM2 primary glioblastoma multiforme; test: In vitro wound repair assay; type: cell-based; conditions: mAb 1 μg/ml; 16 hrs
Protocol: (§1) In vitro wound repair assays were conducted on the following cancer cell lines: BT16 atypical teratoid rhabdoid (brain) carcinoma, NCI-H1573 lung adenocarcinoma, SJ-GBM2 primary glioblastoma multiforme, AN3CA endometrial carcinoma, SW620 colorectal carcinoma and MDA-MB-468 breast carcinoma. Cells were grown in complete medium to confluency in a 12-well plate, and subsequently serum-starved overnight to synchronize at G0. The following day, cell culture medium was removed and the cell monolayers were wounded by scraping with a pipette tip attached to suction. Non-adherent cells were removed by gentle washes with phosphate buffered saline (PBS) and complete growth medium was added to each well, in either the absence or presence of mAb AN-17 (at 1 μg/ml). The wound area was imaged every hour for 0-24 hours. Wound closure was measured in image series using AnalySIS LS Research Software (Olympus) to determine the area of the wound on each day. Experiments were repeated in triplicate with at least six wound areas observed per growth condition.

KRT14 = target: T1, KRT14 (Homo sapiens, UniProt P02533); test: Immunofluorescence staining of ovarian cancer cell lines SKOV-3, Ovcar4 and Cov362.3; type: cell-based; design: endogenous in cells; host or cells: SKOV-3, Ovcar4, Cov362.3; conditions: 1 μg/ml
T1 sequence (P02533 1-472): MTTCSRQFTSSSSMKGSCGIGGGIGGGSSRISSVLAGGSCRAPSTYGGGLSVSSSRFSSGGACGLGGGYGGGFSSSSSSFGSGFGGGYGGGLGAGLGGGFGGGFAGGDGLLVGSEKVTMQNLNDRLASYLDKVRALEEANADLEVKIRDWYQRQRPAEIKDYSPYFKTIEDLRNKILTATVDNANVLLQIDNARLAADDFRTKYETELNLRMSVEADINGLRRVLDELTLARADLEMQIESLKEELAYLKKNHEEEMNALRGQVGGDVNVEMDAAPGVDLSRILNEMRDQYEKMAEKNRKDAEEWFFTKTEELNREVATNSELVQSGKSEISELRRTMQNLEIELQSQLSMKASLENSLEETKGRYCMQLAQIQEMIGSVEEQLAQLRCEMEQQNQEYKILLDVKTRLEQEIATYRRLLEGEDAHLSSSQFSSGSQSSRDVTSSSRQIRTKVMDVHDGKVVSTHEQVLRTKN
Protocol: The ovarian cancer cell lines SKOV-3, Ovcar4 and Cov362.3 were seeded onto 96 well black fluortrac imaging plates. Intact or fixed (1% paraformaldehyde; PFA) and permeabilized (0.1% Triton X) cells were stained using mAb AN-17. For fixed cells, samples were blocked in 10% fetal bovine serum (FBS) and then stained with 1 μg/ml mAb AN-17 for one hour at room temperature. Cells were subsequently washed with PBS and stained with the Alexa Fluor®-647 goat anti-mouse secondary at 1:2000 for one hour at room temperature. For intact cells, samples were stained with 1 μg/ml mAb AN-17 conjugated to Alexa-647 in PBS containing 1% FBS for two hours at 37° C., the medium was replaced with fresh PBS/1% FBS and cells were immediately imaged. Samples were imaged using the Cytation 3 multimode reader at 4× magnification.

[4] = system: BT16 atypical teratoid rhabdoid (brain) carcinoma; test: In vitro wound repair assay; type: cell-based; conditions: mAb 1 μg/ml; 16 hrs
Protocol: (§2) In vitro wound repair assay. Ovarian cancer cells (or other cancer cell lines—BT16, NCI-H1573, AN3CA, SW620 and MDA-MB-468) were grown in complete medium to confluency in a 12-well plate, then serum-starved overnight to synchronize at G0. The following day cell culture medium was removed, and cell monolayers were wounded by scraping with a pipette tip attached to suction. Non-adherent cells were removed by gentle washes with PBS, and complete growth medium with or without mAb AN-17 (1 μg/ml) or commercial KRT14 polyclonal antibody (1 μg/ml) was replaced. The wound area was imaged under a phase microscope (Leica) at regular intervals ranging from 0-72 h. Wound closure was measured in image series using AnalySIS LS Research Software (Olympus) to determine the area of the wound on each day. Experiments were repeated in triplicate with at least six wound areas observed per growth condition.
as §1

[5] = system: NCI-H1573 lung adenocarcinoma; test: In vitro wound repair assay; type: cell-based; conditions: mAb 1 μg/ml; 16 hrs
Protocol: as §2, §1

[6] = system: MDA-MB-468 breast carcinoma; test: In vitro wound repair assay; type: cell-based; conditions: mAb 1 μg/ml; 16 hrs
Protocol: as §2, §1

B1: mAb AN-17: monoclonal anti-KRT14 antibody; heavy chain variable region SEQ ID NO:3, light chain variable region SEQ ID NO:5 (clone AN-17A RG4.E5b.A7.B4) (antibody, listed as Mus musculus, V domains shown)
VH: QVQLKESGPGLVAPSQSLSITCTVSGFSLSRYSVHWVRQPPGKGLEWLGMIWGGGSTDYNSALKSRLSISKDNSKSQVFLKMNSLQTDDTAMYYCARKDYGYSYFDYWGQGTTLTVSS
VL: DVLMTQTPLSLPVSLGDQASISCRSSQSIVHSNGNTYLEWYLQKPGQSPKLLIYKVSNRFSGVPDRFSGSGSGTDFTLKISRVEAEDLGVYYCFQGSHVPFTFGSGTKLEIKRADAAPTVS
- cross-reactivity with protein antigens on arrays [1]: did not react with any of the proteins present on the arrays tested; also recorded: No cross-reactivity was evident
- cross-reactivity with protein antigens on arrays ([1]; listed as mAB AN-17): did not react with any of the antigens present on the array, including several related keratin proteins
- maximum tolerated dose ([2]; doses up to 10 mg/kg i.p.): not reached
- evidence of toxic effects ([2]; single i.p. dose 0.5, 1.0, 2.5, 5.0 and 10 mg/kg, up to 7 days and post mortem): No evidence of toxic effects; also recorded: no toxicity noted at any dose or any time point
- wound closure / migration, SJ-GBM2 [3]: failed to close the wound; also recorded: impaired
- staining localization (KRT14; fixed and permeabilized cells): Specific intracellular cytoplasmic localization
- staining localization (KRT14; intact live cells): predominant cell surface localization
- wound closure / migration, BT16 [4]: failed to close the wound; also recorded: impaired
- wound closure / migration, NCI-H1573 [5]: failed to close the wound; also recorded: impaired
- wound closure / migration, MDA-MB-468 [6]: failed to close the wound; also recorded: impaired
